{
  "source": "the DeepSol protein solubility set",
  "data": [
    {"assay": "soluble on expression in E. coli; label from the status in PepcDB or PDB records", "values": [
      {"sequence": "MSLTRPVTLSEPHFSQHTLNKYASLMAQGNGYLGLRASHEEDYTRQTRGMYLAGLYHRAGKGEINELVNLPDILGMEIAINGEVFSLSHEAWQRELDFASGELRRNVVWRTSNGAGYTIASRRFVSADQLPLIALEITITPLDADASVLISTGIDATQTNHGRQHLDETQVRVFGQHLMQGIYTTQDGRSDVAISCCCKVSGDVQQCYTAKERRLLQHTSAQLHAGETVTLQKLVWIDWRDDRQAVLDEWGSASLRQLEICAQQSYDQLLAASTENWRQWWQKRRITVNGGDAHDQQALDYALYHLRIMTPAHDERSSIAAKGLTGEGYKGHVFWDTEVFLLPFHLFSDPTVARSLLRYRWHNLPGAQEKARRSGWQGALFPWESARSGEEETPEFAAINIRTGLRQKVASAQAEHHLVADIAWAVIQYWQTTGDESFIAHEGMALLLETAKFWISRAVRVNDRLEIHDVIGPDEYTEHVNNNAFTSYMARYNVQQALNIARQFGCSDDAFIHRAEMFLKELWMPETQPDGVLPQDDSFMAKPAINLAKYKAAAGKQTILLDYSRAEVNEMQILKQADVVMLNYMLPEQFSAVSCLANLQFYEPRTIHDSSLSKAIHGIVAARCGLLTQSYQFWREGTEIDLGADPHSCDDGIHAAATGAIWLGAIQGFAGVSVRDGELHLNPALPEQWQQLSFPLFWQGCELQVTLDAQRIAIRTSAPVSLRLNGQLISVAEESVFCLGDFILPFNGTATTHQEDEEGHHHHHH", "soluble on expression in E. coli": "soluble"},
      {"sequence": "MSLTRQMNILLVEDDDLDAMMIKRAMAQVAPDAHLIRATDGVEALEIVQSNRVEDPYFILLDVNMPRMNGHEFLKELRASSEHSDTMVFMFTTSESARDIARAYQERANGYIVKPHGKAAMNSILDTLQRYWTTCEEGHHHHHH", "soluble on expression in E. coli": "soluble"},
      {"sequence": "MSLTTLKCVMQWTWRKTPERTIEVHKKNVNALKLLLIGSPGREQSYTPRDKRSNMHFLKKLGDFQDLEHTVDALKDWHTREKADAVLGLGDMLGLPGATTVRDERFQKKWHDIFIKDAGLDIPWLMTLGDADSVLSPSSQIRYHYSVQQKNWHMPNDYYTVNFKFGANLTLANGMFEETAFNATVIAINTWDLFVGNPVANNMASWTNKLWWLSEQLYQATQKNSSWIIVMGHHPMLSTGTEGEQARLQNIDDLSKSRRSRGLESFLINTLFMHYQVDAYVSGHDHLMEYNSITDVDRNVTVEGHHHHHH", "soluble on expression in E. coli": "not soluble"},
      {"sequence": "MSLTTRLADIAAQAGVSEATVSRVLNGKPGVAATTRQSVLAALDVLGYERPVRLRQRSEGLVGLITPELENPIFPALAQVIGQALTRQGYTPVLATQTPGGSTEDELTEMLVDRGVAGIIFVSGLHADTSADMQRYDQLRAQGVPFVLVDGFSPKVQAPFISPDDRAAMTLAVTHLVSLGHTRIGLALGPKRFVPVQRKIEGFVRSVQEQLGLSPDDVERELVQHSLYTLEGGQAAATALMDRDCTAVVCASDMMALGAIRAARQRGLDVPKDISVVGFDDSPLIAFTDPPLTTIRKPVPAMGQAAVRTLLEEIGGTPAPHSEFVFMPELVVRGSTASAPGDRNRPEGHHHHHH", "soluble on expression in E. coli": "soluble"},
      {"sequence": "MSLTTRVIALDLDGTLLTPKKTLLPSSIEALARAREAGYQLIIVTGRHHVAIHPFYQALALDTPAICCNGTYLYDYHAKTVLEADPMPVIKALQLIEMLNEHHIHGLMYVDDAMVYEHPTGHVIRTSNWAQTLPPEQRPTFTQVASLAETAQQVNAVWKFALTHDDLPQLQHFGKHVEHELGLECEWSWHDQVDIARGGNSKGKRLTKWVEAQGWSMENVVAFGDNFNDISMLEAAGTGVAMGNADDAVKARANIVIGDNTTDSIAQFIYSHLIEGHHHHHH", "soluble on expression in E. coli": "soluble"},
      {"sequence": "MSLTVIITGASSGIGAGLAKSFAADGHLVIACGRDASRLAALQQLSPNISVRLFDMTDRDACRQALTGCFADLIILCAGTCEYLDHGQVDAALVERVMATNFLGPVNCLAALQTQLEAGDRVVLVSSMAHWLPFPRAEAYGASKAALTWFANSLRLDWEPKGVAVTVVSPGFVDTPLTRKNDFAMPGRVSVDRAVAAIRHGLAKGKNHIAFPTGFSLALRLLASLPSGIQRLLLRRMVRSEGHHHHHH", "soluble on expression in E. coli": "soluble"},
      {"sequence": "MSLTVRFTESVSKQDLDALFEWAKASYGAESCWKTLYLNGLPLGNLSPEWVERVKKDWEAGCSESSDGIFLNADGWPDMGGRLQHLALGWHCAGLLDGWRNECFDLTDGGGNPLFTLERAAFRPFGLLSRAVHLNGLTESDGRWHFWIGRRSPHKAVDPNKLDNTAAGGVSGGEMPSEAVCRESSEEAGLDKTLLPLIRPVSQLHSLRSVSRGVHNEILYVFDAVLPETFLPENQDGEVAGFEKMDIGGLLDAMLSGNMMHDAQLVTLDAFCRYGLIDAAHPLSEWLDGIREGHHHHHH", "soluble on expression in E. coli": "not soluble"},
      {"sequence": "MSLTVRLRPHHLLCMLTYIGKGYTSGFVENYDRVAFRLNAGEDIELVEGADDVCEGLLCESHAHCFNDGIVQRDETARLSVSTLLGETLIAGKRLRVTPDFLAKMRLAFAAGDIRQACRGCQWIKLCDRIAASGFAGVKIGVPSQVVPKDATRHPMLRPKYGPSGRKLEGHHHHHH", "soluble on expression in E. coli": "not soluble"},
      {"sequence": "MSLTVSFVHLRLHTEFSLVDGLVRVKPLAKAVAGLGMPAVAVTDQSNMCSLVKFYKTAMGAGIKPICGADIWLASREEDGPLSRLSLLAMNAKGYRNLTELISRGWSEGQRNGEIIIERDWVKEAAEGLIALSAAKEGEIGHALLDGEEAKAEALLREWMEVFPERFYVEVQRTSRVNDEEHLHAAVALASRCNAPLVATNDVRFIKQEDFEAHETRVCIGEGRTLDDPRRPRTYSDQQYLKSPAEMAELFSDLPEALENTVEIAKRCNIEVQLGKYFLPDFPTPNGMGIDDYLRHASFEGLEERLEVLLPKDTPDYEAKRQVYVDRLNFELDIIIQMGFPGYFLIVMDFIKWAKNNGVPVGPGRGSGAGSLVAYVLKITDLDPLAYDLLFERFLNPERISMPDFDVDFCMEGRDRVIDYVADAYGRNAVSQIITFGTMAAKAVVRDVARVQGKSYGLADRLSKMIPFEVGMTLDKAYEQEEMLRDFLKSDEEAAEIWEMALKLEGITRGTGKHAGGVVIAPTKLTDFSPIACDEEGGGLVTQFDKDDVEAAGLVKFDFLGLRTLTIIKWAMEIINREQAKKGLEPVNIDFIPLDDKPTYSLLQKAETTAVFQLESRGMKELIKKLKPDCLEDLIALVALFRPGPLQSGMVDDFINRKHGRAELSYPHPDYQYAGLEPVLKPTYGIILYQEQVMQIAQVMAGYTLGGADMLRRAMGKKKPEEMAKQRGGFIEGCKNNGEGHHHHHH", "soluble on expression in E. coli": "not soluble"},
      {"sequence": "MSLVERARLAEGGGWDCHFHVFDASRYTLAAGSAYQPEDASLAAFRGVCRARGIGRAVLVHPSVYGADHSSYEDALAANGDWLRGVAVVYPDEATTPDARIEHWDLLGTAGTRINRLFPGAPQHPERIVERVKPFGWHVQVLTDIVEDIGLVRRIAARDVPVVVDHFGHHPHAQLLRSAGWQDLIALVREGAAWVKLSAPYRVGAQGPAWPGAQALVDQLVQANPRQLVWGSDWPHPPDHRHPFPAPDQAAIGATIAQWLPDAQLRRQVMELNPLRLYGGTRAAGREGHHHHHH", "soluble on expression in E. coli": "soluble"},
      {"sequence": "MSLVKAISSNLGYPRLGEKREWKRALEKFWNGAISEEELLAETKALRLHALKKQQEKGIDLIPVGDFSFYDQVLDTSVTFGIIPKRFQHDGGKVSLNTYFDIARGKSDAVASEMTKWFNTNYHYIVPELADADPKVLDNRALYYYEEAKKELGIEGKPVLVGPVTYLKLGKGNDAENFEALLDKFIPAYVEILKELERAGAKWVQIDEPYLATSFDKSEIKLFEKVYQAFQTAVPNLKIELQTYFESLDYYEEVVNLPVAAIGIDFVHDHGDSLEALKAHGFPEDKYLAAGVIDGRNVWRSDLDAKLSLLTEIADYVTDGKLIVQPSNSLLHVPVTKLSEPDLDEVILGGLSFADQKLDEIAILTKALTDGAESVTAELEDARAAVTALNESSHRNNLEVQEAIANLGNVRVDRELPFAERIKLQHAWLNLPLFPTTTIGSFPQSPEVRKTRADWLKGNITDAEYNAFIEKETARWIKIQEELDIDVLVHGEFERTDMVEYFGQKLAGFQATKFGWVQSYGSRAVRPPLIYGDVAFTEEITVKESVYAQSLTKRPVKGMLTAPVTIINWSFVRDDVPESVVANQVGLALRKEVEALERNGIKVIQVDEPALREGLPLKQARWEKYLNDAVYSFKLTTASVQNDTQIHTHMCYSDFDDIIDTISALDADVISIETSRSHGEIISTFEEVTYDKEIGLGVYDIHSPRVPTVTEIQDNIRRALRAIDAKQFWINPDCGLKTRKEPETIAALQDMIKATKEVRAEYQVLEKEGHHHHHH", "soluble on expression in E. coli": "soluble"},
      {"sequence": "MSLVMSGEKMKVIIVEDEFLAQQELSWLINTHSQMEIVGSFDDGLDVLKFLQHNKVDAIFLDINIPSLDGVLLAQNISQFAHKPFIVFITAWKEHAVEAFELEAFDYILKPYQESRIINMLQKLTTAWEQQNNAAEGHHHHHH", "soluble on expression in E. coli": "soluble"}
    ]}
  ]
}
